Laboratory results as given in patent publication US10738090B2, “Engineered microcompartment protein and related methods and systems of engineering bacterial systems for non-native protein expression and purification” (priority 2017, dated 2020).
No end group written: not given here.

Assays:
pathogens = conditions: cited from earlier work
E. coli BL21(DE3) cells = format: cell-based; conditions: for concentration showing significant anti-bacterial activity: BL21(DE3) E. coli
Method: Growth inhibition activity can be tested against E. coli BL21(DE3) cells. Overnight cultures of cells were diluted to 200 μL of an initial OD600 of 0.05-0.1 in LB medium. Diluted cultures were grown at 37° C., 1000 rpm in a PHMP-4 Microplate Shaker (Grant Instruments, Cambridge, England). Protein was added to the culture at an OD600 of 0.1-0.2. Growth measured by OD600 was monitored over time and were conducted in triplicate. TEV-digested material contained HB-Enc fusion protein (0.5 mg/mL) that was incubated with TEV protease (0.5 U/mL) overnight for 17 h at 4° C.

[1] = Proteolysis of HB fusion constructs in C43(DE3) cell lysate (SDS-PAGE, anti-His Western blot); parameters: species or system E. coli
Method: In particular, in order to perform the testing, all DNA plasmids were transformed and expressed in C43(DE3) cells as described in Example 12, except that cells were grown in 25 mL of LB medium in 150-mL flasks. IPTG induction was conducted overnight for 17 h at 18° C. to enhance soluble protein expression. Cells were harvested and lysed also as described in Example 12.
To test for proteolysis in cell lysate, cells expressing the HB-Enc constructs from 25 mL of culture were harvested and resuspended in phosphate buffer (50 mM sodium phosphate pH 8.0, 500 mM NaCl) and 10 U/mL of DNaseI. Cells were lysed via a French Pressure cell at 14,000 psi and then centrifuged at 12,000 g, 4° C. for 25 min. The supernatant (soluble) fraction was collected and incubated at 4° C. overnight. Samples for SDS-PAGE analysis were collected immediately after lysis and after overnight incubation.
As controls, samples after BPER-II lysis were also prepared. Samples were resolved on an any-kDa SDS-PAGE gel (Bio-Rad) and stained with Coomassie blue. For Western blot analysis, samples were resolved on an any-kDa and blotted to a PVDF membrane using a Transblot Turbo System (Bio-Rad) at 2.5 A for 7 min. Samples were probed using a mouse anti-His-tag primary antibody and a rabbit anti-Mouse-HRP conjugated secondary antibody (both from Bio-Rad). HRP was detected on the membrane using chemiluminescence.

TEV protease = molecular target: T1, TEV protease (Tobacco etch virus, UniProt P04517); format: biochemical; conditions: for extent of TEV protease digestion / release of HBCM2 peptide: exogenous TEV protease, overnight at 4° C., G4T linker; for release of HB peptide by TEV protease: GT linker instead of G4T linker between TEV site and N-terminus of Enc, SDS-PAGE
T1 construct: Tobacco etch virus protease (TEV protease)
Method: All purified constructs were digested by addition of exogenous TEV protease, followed by overnight incubation at 4° C. Products were resolved on a 16.5% Tris-Tricine gel (Bio-Rad).

[2] = French press lysis without BPER-II, then overnight incubation at 4° C.
[3] = immediately after French press lysis

Cecropin PR-39
bactericidal activity (pathogens): high bactericidal activity

GNNRPVYIPQPRPPHPRI [native Ap peptide, Apidaecin Ia, reference compound]
concentration showing significant anti-bacterial activity (E. coli BL21(DE3) cells; chemically synthesized peptide): ≥ 100 µg/mL | bactericidal activity (pathogens): high bactericidal activity

MKWKSFIKKLTKAAKKVVTTAKKPLIVENLYFQ [M-HBCM2-TEV]
concentration showing significant anti-bacterial activity (E. coli BL21(DE3) cells; chemically synthesized peptide): 2 µg/mL | MIC (E. coli BL21(DE3) cells; chemically synthesized peptide, E. coli BL21(DE3), FIG. 31 Panel B): < 5 µg/mL

B1: HB-EncD60^TEVK138^TEV-His: HB-Enc fusion with TEV site after D60 plus TEV-His insertion after K138; cage forming (protein)
chain: MKWKSFIKKLTKAAKKVVTTAKKPLIVENLYFQGGGGGTEFLKRSFAPLTEKQWQEIDNRAREIFKTQLYGRKFVDVEGPYGWEYAAHPLGEVEVLSDGGENLYFQGGGENEVVKWGLRKSLPLIELRATFTLDLWELDNLERGKPNVDLSSLEETVRKVAEFEDEVIFRGCEKSGVKGLLSFEERKGGGGGENLYFQGHHHHHHGGGGGIECGSTPKDLLEAIVRALSIFSKDGIEGPYTLVINTDRWINFLKEEAGHYPLEKRVEECLRGGKIITTPRIEDALVVSERGGDFKLILGQDLSIGYEDREKDAVRLFITETFTFQVVNPEALILLK
proteolysis in cell lysate [1, 2]: resistant to proteolysis

B2: TEV protease: Tobacco etch virus protease, recognition sequence ENLYFQ/G; negative control alone (protein)
chain: GESLFKGPRDYNPISSTICHLTNESDGHTTSLYGIGFGPFIITNKHLFRRNNGTLLVQSLHGVFKVKNTTTLQQHLIDGRDMIIIRMPKDFPPFPQKLKFREPQREERICLVTTNFQTKSMSSMVSDTSCTFPSSDGIFWKHWIQTKDGQCGSPLVSTRDGFIVGIHSASNFTNTNNYFTSVPKNFMELLTNQEAQQWVSGWRLNADSVLWGGHKVFMSKPEEPFQPVKEATQLMNELVYSQ
anti-bacterial / growth inhibition activity (E. coli BL21(DE3) cells; E. coli BL21(DE3), concentration not given): no growth inhibition

B3: HB-EncK71^TEV (protein)
chain: MKWKSFIKKLTKAAKKVVTTAKKPLIVENLYFQGGGGGTEFLKRSFAPLTEKQWQEIDNRAREIFKTQLYGRKFVDVEGPYGWEYAAHPLGEVEVLSDENEVVKWGLRKGGENLYFQGGGSLPLIELRATFTLDLWELDNLERGKPNVDLSSLEETVRKVAEFEDEVIFRGCEKSGVKGLLSFEERKIECGSTPKDLLEAIVRALSIFSKDGIEGPYTLVINTDRWINFLKEEAGHYPLEKRVEECLRGGKIITTPRIEDALVVSERGGDFKLILGQDLSIGYEDREKDAVRLFITETFTFQVVNPEALILLK
proteolysis in cell lysate [1, 2]: completely proteolyzed | proteolysis in cell lysate [1, 3]: significantly degraded | extent of TEV protease digestion / release of HBCM2 peptide (TEV protease): apparent complete digestion

B4: HB-EncK138^TEV-His: HBCM2, TEV site, G4T-linker fused to N-terminus of Enc; TEV site and His6-tag after K138; cage forming (protein)
chain: MKWKSFIKKLTKAAKKVVTTAKKPLIVENLYFQGGGGGTEFLKRSFAPLTEKQWQEIDNRAREIFKTQLYGRKFVDVEGPYGWEYAAHPLGEVEVLSDENEVVKWGLRKSLPLIELRATFTLDLWELDNLERGKPNVDLSSLEETVRKVAEFEDEVIFRGCEKSGVKGLLSFEERKGGGGGENLYFQGHHHHHHGGGGGIECGSTPKDLLEAIVRALSIFSKDGIEGPYTLVINTDRWINFLKEEAGHYPLEKRVEECLRGGKIITTPRIEDALVVSERGGDFKLILGQDLSIGYEDREKDAVRLFITETFTFQVVNPEALILLK
proteolysis in cell lysate [1, 2]: resistant to proteolysis

B5: HB-EncD60^TEVK138^TEV-His with the shorter GT linker: HB-EncD60^TEVK138^TEV-His with a GT linker instead of the G4T linker (protein)
chain: MKWKSFIKKLTKAAKKVVTTAKKPLIVENLYFQGGTEFLKRSFAPLTEKQWQEIDNRAREIFKTQLYGRKFVDVEGPYGWEYAAHPLGEVEVLSDGGENLYFQGGGENEVVKWGLRKSLPLIELRATFTLDLWELDNLERGKPNVDLSSLEETVRKVAEFEDEVIFRGCEKSGVKGLLSFEERKGGGGGENLYFQGHHHHHHGGGGGIECGSTPKDLLEAIVRALSIFSKDGIEGPYTLVINTDRWINFLKEEAGHYPLEKRVEECLRGGKIITTPRIEDALVVSERGGDFKLILGQDLSIGYEDREKDAVRLFITETFTFQVVNPEALILLK
release of HB peptide by TEV protease (TEV protease): did not result in detectable release of HB peptide

B6: HB-EncV57^TEVK138^TEV-His with the shorter GT linker: HB-EncV57^TEVK138^TEV-His with a GT linker instead of the G4T linker (protein)
chain: MKWKSFIKKLTKAAKKVVTTAKKPLIVENLYFQGGTEFLKRSFAPLTEKQWQEIDNRAREIFKTQLYGRKFVDVEGPYGWEYAAHPLGEVEVGGENLYFQGGGLSDENEVVKWGLRKSLPLIELRATFTLDLWELDNLERGKPNVDLSSLEETVRKVAEFEDEVIFRGCEKSGVKGLLSFEERKGGGGGENLYFQGHHHHHHGGGGGIECGSTPKDLLEAIVRALSIFSKDGIEGPYTLVINTDRWINFLKEEAGHYPLEKRVEECLRGGKIITTPRIEDALVVSERGGDFKLILGQDLSIGYEDREKDAVRLFITETFTFQVVNPEALILLK
release of HB peptide by TEV protease (TEV protease): did not result in detectable release of HB peptide

B7: HB-EncK71^TEVK138^TEV-His: HBCM2 fused to N-terminus of T. maritima encapsulin; TEV sites after K71 and K138, His-tag; non-cage forming (protein)
chain: MKWKSFIKKLTKAAKKVVTTAKKPLIVENLYFQGGGGGTEFLKRSFAPLTEKQWQEIDNRAREIFKTQLYGRKFVDVEGPYGWEYAAHPLGEVEVLSDENEVVKWGLRKGGENLYFQGGGSLPLIELRATFTLDLWELDNLERGKPNVDLSSLEETVRKVAEFEDEVIFRGCEKSGVKGLLSFEERKGGGGGENLYFQGHHHHHHGGGGGIECGSTPKDLLEAIVRALSIFSKDGIEGPYTLVINTDRWINFLKEEAGHYPLEKRVEECLRGGKIITTPRIEDALVVSERGGDFKLILGQDLSIGYEDREKDAVRLFITETFTFQVVNPEALILLK
growth inhibition of E. coli (E. coli BL21(DE3) cells; undigested fusion protein at 40 μg/mL): did not inhibit the growth | truncated products on expression (proteolysis) ([1]; C43(DE3) cells, anti-His-tag Western blot): some truncated products | proteolysis in cell lysate [1, 2]: completely proteolyzed | proteolysis in cell lysate [1, 3]: significantly degraded | extent of TEV protease digestion / release of HBCM2 peptide (TEV protease): apparent complete digestion

B8: HB-EncK138^TEV-His with the shorter GT linker: HB-EncK138^TEV-His with a GT linker between TEV site and N-terminus of Enc instead of G4T (protein)
chain: MKWKSFIKKLTKAAKKVVTTAKKPLIVENLYFQGGTEFLKRSFAPLTEKQWQEIDNRAREIFKTQLYGRKFVDVEGPYGWEYAAHPLGEVEVLSDENEVVKWGLRKSLPLIELRATFTLDLWELDNLERGKPNVDLSSLEETVRKVAEFEDEVIFRGCEKSGVKGLLSFEERKGGGGGENLYFQGHHHHHHGGGGGIECGSTPKDLLEAIVRALSIFSKDGIEGPYTLVINTDRWINFLKEEAGHYPLEKRVEECLRGGKIITTPRIEDALVVSERGGDFKLILGQDLSIGYEDREKDAVRLFITETFTFQVVNPEALILLK
release of HB peptide by TEV protease (TEV protease): did not result in detectable release of HB peptide

B9: HB-EncV57^TEVK138^TEV-His: HB-Enc fusion with TEV site after V57 plus TEV-His insertion after K138; cage forming (protein)
chain: MKWKSFIKKLTKAAKKVVTTAKKPLIVENLYFQGGGGGTEFLKRSFAPLTEKQWQEIDNRAREIFKTQLYGRKFVDVEGPYGWEYAAHPLGEVEVGGENLYFQGGGLSDENEVVKWGLRKSLPLIELRATFTLDLWELDNLERGKPNVDLSSLEETVRKVAEFEDEVIFRGCEKSGVKGLLSFEERKGGGGGENLYFQGHHHHHHGGGGGIECGSTPKDLLEAIVRALSIFSKDGIEGPYTLVINTDRWINFLKEEAGHYPLEKRVEECLRGGKIITTPRIEDALVVSERGGDFKLILGQDLSIGYEDREKDAVRLFITETFTFQVVNPEALILLK
proteolysis in cell lysate [1, 2]: resistant to proteolysis
